Experimental data reported in US5723307A, “Fluorogenic substrates for assay of angiotensin converting enzyme” (Development Center for Biotechnology, priority 1995, dated 1998).
Each block holds one molecule with its values, some of them ahead of it. Starred links: 1 amine or outer side, 2 acyl side, 3 side chain; linkers in the order of their positions; H or OH if unused. Non-standard residues stand in square brackets, D forms with d. Residues, ends and D or L forms follow the SMILES beside them. *: point of attachment. Phe(4-NO2) = N[C@@H](Cc1ccc([N+](=O)[O-])cc1)C(=O)O; EDANS = O=S(=O)(O)c1cccc2c(NCCN*)cccc12; Suc = O=C(CCC(=O)[*:2])[*:1]; 2Abz = Nc1ccccc1C(=O)O

Legend:
[1] = tested on: ACE; conditions: from literature, cited from earlier work; for Km: Ref. [16]-[20]
[2] = solubility in aqueous buffer; assay type: physicochemical
[3] = substrate: CC(C)C[C@H](NC(=O)[C@H](Cc1c[nH]c2ccccc12)NC(=O)[C@H](Cc1ccccc1)NC(=O)CCC(=O)NCCNc1cccc2c(S(=O)(=O)O)cccc12)C(=O)O; assay: continuous spectrofluorometric assay of hydrolysis of fluorogenic substrates by ACE (kinetic parameters); assay type: biochemical, rabbit; conditions: other: 0.05M Hepes buffer pH 8.2, 0.2M NaCl, 1M Na2SO4, Lineweaver-Burk, ex 286 nm, em 360 nm, 37.0 °C
Description: (§1) Fluorescence data were recorded on a HITACHI Model F2000 fluorescence spectrophotometer (Tokyo, Japan) set at wavelengths of 286 nm (excitation)and 360 nm (emission). The rates of enzymatic hydrolysis of the fluorogenic compounds ES-FWF, ES-FWG, ES-FWH, ES-FWK, ES-FWL and ES-FHW were monitored fluorospectrophotometrically as follows: A solution of ACE was prepared at 1.3×10^-2 units/ml (concentration of enzyme was estimated by using the Bio-Rad protein assay kit with bovine serum albumin as a standard). […] Activity was assayed with hippuryl-L-histidyl-L-leucine as a substrate. One unit of enzyme activity is the amount required to catalyze the formation of 1.0 μmol of hippuric acid per minute (in 50 mM Hepes, pH 8.3, and 0.3M NaCl at 37° C.). For fluorescence measurement, 20 μl of enzyme solution was added to 0.5 ml substrate solution (2×10^-6 -6.5×10^-5 M) in 0.05M Hepes buffer, pH 8.2, containing 0.2M NaCl and 1M Na2 SO4, placed in an optical cell. […] The increase in fluorescence (emission at 360 nm, excitation at 286 nm) with time, in the presence of the enzyme, was recorded continuously. Since the product (and perhaps the substrate as well) is subject to photodecomposition, the slit width of the excitation monochromator must not be too large. Alternatively, the reaction can be monitored automatically by pulse illumination with a time interval of 150, sec, as shown in FIG. 1.
(§2) Dependence of the rate of hydrolysis on substrate concentration was established by initial rate measurements (within the first 10% of hydrolysis). The slope of the line was translated into molar concentrations of the released dipeptides using a calibration curve constructed by fluorescence measurements of solutions containing authentic dipeptide under identical conditions. Km values were calculated by the method of Lineweaver-Burk plots. Five points with approximately equidistance on the 1/[S] abscissa were obtained from the average of two independent measurements. Kinetic parameters for other substrates were also obtained by similar procedures.
(§3) Kinetic parameters of ES-FWF, ES-FWG, ES-FWH, ES-FWK, ES-FWL and ES-FHW for ACE were obtained by continuous spectrofluorometric assay, and the results are listed in Table I. In order to compare the characteristics of the ES-peptides with those of previously reported fluorogenic substrates, the kinetic parameters from literatures were collected for comparison.

[4] = substrate: NCCCC[C@H](NC(=O)[C@H](Cc1c[nH]c2ccccc12)NC(=O)[C@H](Cc1ccccc1)NC(=O)CCC(=O)NCCNc1cccc2c(S(=O)(=O)O)cccc12)C(=O)O; assay: as above; assay type: biochemical, rabbit; conditions: other: 0.05M Hepes buffer pH 8.2, 0.2M NaCl, 1M Na2SO4, Lineweaver-Burk, ex 286 nm, em 360 nm, 37.0 °C
Description: as §1, §2, §3

[5] = substrate: O=C(CCC(=O)N[C@@H](Cc1ccccc1)C(=O)N[C@@H](Cc1c[nH]c2ccccc12)C(=O)N[C@@H](Cc1c[nH]cn1)C(=O)O)NCCNc1cccc2c(S(=O)(=O)O)cccc12; assay: as above; assay type: biochemical, rabbit; conditions: other: 0.05M Hepes buffer pH 8.2, 0.2M NaCl, 1M Na2SO4, Lineweaver-Burk, ex 286 nm, em 360 nm, 37.0 °C
Description: as §1, §2, §3

[6] = substrate: O=C(CCC(=O)N[C@@H](Cc1ccccc1)C(=O)N[C@@H](Cc1c[nH]c2ccccc12)C(=O)N[C@@H](Cc1ccccc1)C(=O)O)NCCNc1cccc2c(S(=O)(=O)O)cccc12; assay: as above; assay type: biochemical, rabbit; conditions: other: 0.05M Hepes buffer pH 8.2, 0.2M NaCl, 1M Na2SO4, Lineweaver-Burk, ex 286 nm, em 360 nm, 37.0 °C
Description: as §1, §2, §3

[7] = substrate: O=C(CCC(=O)N[C@@H](Cc1ccccc1)C(=O)N[C@@H](Cc1c[nH]cn1)C(=O)N[C@@H](Cc1c[nH]c2ccccc12)C(=O)O)NCCNc1cccc2c(S(=O)(=O)O)cccc12; assay: as above; assay type: biochemical, rabbit; conditions: other: 0.05M Hepes buffer pH 8.2, 0.2M NaCl, 1M Na2SO4, Lineweaver-Burk, ex 286 nm, em 360 nm, 37.0 °C
Description: as §1, §2, §3

[8] = substrate: O=C(O)CNC(=O)[C@H](Cc1c[nH]c2ccccc12)NC(=O)[C@H](Cc1ccccc1)NC(=O)CCC(=O)NCCNc1cccc2c(S(=O)(=O)O)cccc12; assay: as above; assay type: biochemical, rabbit; conditions: other: 0.05M Hepes buffer pH 8.2, 0.2M NaCl, 1M Na2SO4, Lineweaver-Burk, ex 286 nm, em 360 nm, 37.0 °C
Description: as §1, §2, §3

Molecule: Nc1ccccc1C(=O)NCC(=O)N[C@@H](Cc1ccc([N+](=O)[O-])cc1)C(=O)N1CCC[C@H]1C(=O)O [Abz-GF(NO2)P, o-aminobenzoyl-glycyl-p-nitro-L-phenylalanyl-L-proline] (H-[2Abz]G[Phe(4-NO2)]P-OH)
- Km [1]: 190 µM
- kcat ([1]; Ref. [17]-[20]): 1.5 s⁻¹
- kcat/Km ([1]; Ref. [17]-[20]): 7.7 × 10^3 M^-1 S^-1

- solubility [2]: 7000 to 40000 µg/mL
Molecule: O=C(CCC(=O)N[C@@H](Cc1ccccc1)C(=O)N[C@@H](Cc1c[nH]c2ccccc12)C(=O)N[C@@H](Cc1ccccc1)C(=O)O)NCCNc1cccc2c(S(=O)(=O)O)cccc12 [ES-FWF] ({EDANS-Suc}-Phe-Trp-Phe-OH)

- solubility [2]: 7000 to 40000 µg/mL
Molecule: O=C(CCC(=O)N[C@@H](Cc1ccccc1)C(=O)N[C@@H](Cc1c[nH]cn1)C(=O)N[C@@H](Cc1c[nH]c2ccccc12)C(=O)O)NCCNc1cccc2c(S(=O)(=O)O)cccc12 [ES-FHW] ({EDANS-Suc}-Phe-His-Trp-OH)

- solubility [2]: 7000 to 40000 µg/mL
Molecule: CC(C)C[C@H](NC(=O)[C@H](Cc1c[nH]c2ccccc12)NC(=O)[C@H](Cc1ccccc1)NC(=O)CCC(=O)NCCNc1cccc2c(S(=O)(=O)O)cccc12)C(=O)O [ES-FWL] ({EDANS-Suc}-Phe-Trp-Leu-OH)

- solubility [2]: 7000 to 40000 µg/mL
Molecule: O=C(CCC(=O)N[C@@H](Cc1ccccc1)C(=O)N[C@@H](Cc1c[nH]c2ccccc12)C(=O)N[C@@H](Cc1c[nH]cn1)C(=O)O)NCCNc1cccc2c(S(=O)(=O)O)cccc12 [ES-FWH] ({EDANS-Suc}-Phe-Trp-His-OH)

Molecule: O=C(O)CNC(=O)[C@H](Cc1c[nH]c2ccccc12)NC(=O)CNC(=O)OCc1ccc([N+](=O)[O-])cc1 [Z(NO2)-GWG, p-nitrobenzyloxycarbonylglycyl-L-tryptophyl-glycine]
- Km [1]: 900 µM

- solubility [2]: 7000 to 40000 µg/mL
Molecule: O=C(O)CNC(=O)[C@H](Cc1c[nH]c2ccccc12)NC(=O)[C@H](Cc1ccccc1)NC(=O)CCC(=O)NCCNc1cccc2c(S(=O)(=O)O)cccc12 [ES-FWG] ({EDANS-Suc}-Phe-Trp-Gly-OH)

- solubility [2]: 7000 to 40000 µg/mL
Molecule: NCCCC[C@H](NC(=O)[C@H](Cc1c[nH]c2ccccc12)NC(=O)[C@H](Cc1ccccc1)NC(=O)CCC(=O)NCCNc1cccc2c(S(=O)(=O)O)cccc12)C(=O)O [ES-FWK] ({EDANS-Suc}-Phe-Trp-Lys-OH)

B1: ACE (from rabbit lung, Sigma Chemical Co.) (Oryctolagus cuniculus) (protein)
chain: TLDPGLLPGDFAADEAGARLFASSYNSSAEQVLFRSTAASWAHDTNITAENARRQEEEALLSQEFAEAWGKKAKELYDPVWQNFTDPELRRIIGAVRTLGPANLPLAKRQQYNSLLSNMSQIYSTGKVCFPNKTASCWSLDPDLNNILASSRSYAMLLFAWEGWHNAVGIPLKPLYQEFTALSNEAYRQDGFSDTGAYWRSWYDSPTFEEDLERIYHQLEPLYLNLHAYVRRVLHRRYGDRYINLRGPIPAHLLGNMWAQSWESIYDMVVPFPDKPNLDVTSTMVQKGWNATHMFRVAEEFFTSLGLLPMPPEFWAESMLEKPEDGREVVCHASAWDFYNRKDFRIKQCTQVTMDQLSTVHHEMGHVQYYLQYKDQPVSLRRANPGFHEAIGDVLALSVSTPAHLHKIGLLDHVTNDTESDINYLLKMALEKIAFLPFGYLVDQWRWGVFSGRTPSSRYNFDWWYLRTKYQGICPPVVRNETHFDAGAKFHIPSVTPYIRYFVSFVLQFQFHQALCMEAGHQGPLHQCDIYQSTRAGAKLRAVLQAGCSRPWQEVLKDMVASDALDAQPLLDYFQPVTQWLQEQNERNGEVLGWPEYQWRPPLPNNYPEGIDLVTDEAEASRFVEEYDRSFQAVWNEYAEANWNYNTNITTEASKILLQKNMQIANHTLTYGNWARRFDVSNFQNATSKRIIKKVQDLQRAVLPVKELEEYNQILLDMETIYSVANVCRVDGSCLQLEPDLTNLMATSRKYDELLWVWTSWRDKVGRAILPYFPKYVEFTNKAARLNGYVDAGDSWRSMYETPTLEQDLERLFQELQPLYLNLHAYVGRALHRHYGAQHINLEGPIPAHLLGNMWAQTWSNIYDLVAPFPSASTMDATEAMIKQGWTPRRMFEEADKFFISLGLLPVPPEFWNKSMLEKPTDGREVVCHASAWDFYNGKDFRIKQCTTVNMEDLVVVHHEMGHIQYFMQYKDLPVALREGANPGFHEAIGDVLALSVSTPKHLHSINLLSSEGGGYEHDINFLMKMALDKIAFIPFSYLVDEWRWRVFDGSITKENYNQEWWSLRLKYQGLCPPAPRSQGDFDPGAKFHIPSSVPYIRYFVSFIIQFQFHEALCKAAGHTGPLHTCDIYQSKEAGKRLADAMKLGYSKPWPEAMKVITGQPNMSASAMMNYFKPLMDWLLTENGRHGEKLGWPQYTWTPNSARSEGSLPDSGRVNFLGMNLDAQQARVGQWVLLFLGVALLLASLGLTQRLFSIRYQSLRQPHHGPQFGSEVELRHS
notes: ACE (from rabbit lung, Sigma Chemical Co.); purchased Sigma Chemical Co; host or cells: rabbit lung (tissue)
- Km [3]: 2.7 µM
- kcat [3]: 0.9 s⁻¹
- kcat/Km [3]: 3.2 × 10^5 M^-1 S^-1
- Km [4]: 24 µM
- kcat [4]: 3.8 s⁻¹
- kcat/Km [4]: 1.6 × 10^5 M^-1 S^-1
- Km [5]: 4.9 µM
- kcat [5]: 0.8 s⁻¹
- kcat/Km [5]: 1.7 × 10^5 M^-1 S^-1
- Km [6]: 4.5 µM
- kcat [6]: 2.1 s⁻¹
- kcat/Km [6]: 4.6 × 10^5 M^-1 S^-1
- Km [7]: 15 µM
- kcat [7]: 2.0 s⁻¹
- kcat/Km [7]: 1.3 × 10^5 M^-1 S^-1
- Km [8]: 23 µM
- kcat [8]: 2.0 s⁻¹
- kcat/Km [8]: 8.9 × 10^4 M^-1 S^-1
